Assay results: article PMC10019796

Biological target: mtDsbC-SARS-CoV-2 RBD Alpha variant (B.1.1.7) fusion protein (SARS-CoV-2) (UniProt P0DTC2)
Assay: BLI; biotinylated mtDsbC-RBD (20 µg/mL) immobilised on streptavidin (SA) biosensors, Fabs as analytes at three nanomolar concentrations; Octet RED384, 30 °C, 1000 rpm, 1 × PBS Kinetics Buffer; 1:1 interaction model, global fit

## REGN10987 (L93Q) Fab
  Kd: > 1000 nM
